Results reported in PMC6175940, “Increasing the distance between two monomers of topoisomerase IIβ under the action of antitumor agent 4β-sulfur-(benzimidazole) 4′-demethylepipodophyllotoxin”.

Biological target: hTop2βcore (human topoisomerase IIβ catalytic core) (human, UniProt Q02880 450-1206)
Assay: X-ray crystallography (2.54 Å); 100 mM MgCl2; crystallized with 2 mM compound C-Bi (not visible in the structure); cleavage complex; Crystallization: protein and DNA (1.2-fold molar ratio to protein) with 2 mM C-Bi; reservoir 100 mM MgCl2, 50 mM sodium citrate pH 5.3, 20% MPD, 0.05% ethyl acetate, 4 °C; protein buffer 30 mM Tris-HCl pH 7.5, 70 mM NaCl, 2 mM β-mercaptoethanol, 1 mM EDTA
Settings: protein: recombinant; chain copies: 2; blunt; self-complementary, 2 copies of the same strand

Sequence of hTop2βcore (human topoisomerase IIβ catalytic core) (Q02880 450-1206): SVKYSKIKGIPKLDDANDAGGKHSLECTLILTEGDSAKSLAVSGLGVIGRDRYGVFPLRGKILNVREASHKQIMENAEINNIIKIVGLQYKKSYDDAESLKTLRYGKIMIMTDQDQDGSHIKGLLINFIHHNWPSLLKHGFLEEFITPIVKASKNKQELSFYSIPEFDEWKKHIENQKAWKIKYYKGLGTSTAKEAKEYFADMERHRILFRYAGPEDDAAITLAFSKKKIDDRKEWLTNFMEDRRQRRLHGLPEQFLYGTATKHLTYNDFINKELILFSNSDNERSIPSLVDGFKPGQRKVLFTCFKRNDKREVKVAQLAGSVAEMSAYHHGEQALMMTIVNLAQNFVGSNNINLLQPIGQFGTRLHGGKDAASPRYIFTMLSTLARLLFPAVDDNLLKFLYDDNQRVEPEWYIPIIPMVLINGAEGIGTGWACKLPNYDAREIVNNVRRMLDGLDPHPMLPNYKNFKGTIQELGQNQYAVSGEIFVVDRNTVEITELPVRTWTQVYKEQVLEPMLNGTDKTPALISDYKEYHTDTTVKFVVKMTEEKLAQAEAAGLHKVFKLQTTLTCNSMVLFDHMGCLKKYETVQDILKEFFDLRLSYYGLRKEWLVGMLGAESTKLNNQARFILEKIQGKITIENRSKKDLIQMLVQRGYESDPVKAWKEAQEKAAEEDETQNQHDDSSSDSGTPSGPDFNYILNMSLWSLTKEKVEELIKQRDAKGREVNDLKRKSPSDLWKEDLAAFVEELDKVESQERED

B1: 20-bp DNA substrate for crystallography (dsDNA)
DNA 1: AGCCGAGCTGCAGCTCGGCT
DNA 2: AGCCGAGCTGCAGCTCGGCT
  binding result: binds
